Test results: doi:10.1101/2024.02.20.581179

Experiments:
Experiment in all cases: SEC
[1] = biological target: GST-tagged A. carterae eIF4E-1a (not stated | Amphidinium carterae)
[2] = biological target: GST-tagged A. carterae eIF4E-1d1 (not stated | Amphidinium carterae)
[3] = biological target: GST-tagged A. carterae eIF4E-2a (not stated | Amphidinium carterae)
[4] = biological target: GST-tagged mouse eIF4E-1 (not stated | mouse)

GST-tagged A. carterae eIF4E-1a
stoichiometry N [1]: 2

GST-tagged A. carterae eIF4E-1d1
stoichiometry N [2]: 2

GST-tagged A. carterae eIF4E-2a
stoichiometry N [3]: 2

GST-tagged mouse eIF4E-1
stoichiometry N [4]: 2
